Patent US20210079109A1 (Regeneron, published 2021)

Columns and labels:
human CD63 [1] = target: T1, human CD63 (human, UniProt P08962 2-238); experiment: ECL, LNCAP cells
T1 construct: stably transfected in NIH3T3/hCD63; The cell line is named under assay; also called hCD63
T1 sequence: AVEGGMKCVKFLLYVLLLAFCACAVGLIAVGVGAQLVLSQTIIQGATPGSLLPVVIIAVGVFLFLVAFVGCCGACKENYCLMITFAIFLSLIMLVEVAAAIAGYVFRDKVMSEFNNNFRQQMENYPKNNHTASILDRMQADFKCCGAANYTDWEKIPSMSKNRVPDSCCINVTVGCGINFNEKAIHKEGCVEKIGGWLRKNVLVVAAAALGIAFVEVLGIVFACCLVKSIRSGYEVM
Protocol: (§1) LNCAP cells were determined to have a lower human CD63 copy number than U87MG cells. Non-transfected NIH3T3 cells, which have no detectable expression of human CD63 by fluorescence activated cell sorting (FACS), were included as a negative control.
(§2) Briefly, cell lines were rinsed once in PBS buffer without Ca²⁺/Mg²⁺ and incubated for 10 minutes at 37° C. with Enzyme Free Cell Dissociation Solution (Millipore, Cat #S-004-C) to detach the cells. Cells were then washed once with PBS with Ca²⁺/Mg²⁺ and counted with a Cellometer™ Auto T4 cell counter (Nexcelom Bioscience, LLC). Approximately 2.0×10⁴ NIH3T3/hCD63, LNCAP, U87MG or NIH3T3 cells were seeded separately onto 96-well carbon electrode plates […]) and were then incubated for one hour at 37° C. Nonspecific binding sites were blocked with 2% BSA (w/v) in PBS with Ca²⁺/Mg²⁺ for one hour at room temperature (RT). Solutions containing anti-CD63 antibodies or isotype control antibodies at a range of concentrations (1.7 pM to 100 nM) in 0.5% BSA (w/v) in PBS with Ca²⁺/Mg²⁺, as well as control buffer alone, were then added in duplicate to the plate-bound NIH3T3/hCD63, LNCAP, U87MG or NIH3T3 cells and incubated for one hour at RT. Plates were subsequently washed to remove unbound antibodies using an AquaMax2000 plate washer with a cell washing head (MDS Analytical Technologies). […] Plates were washed and then incubated with Read Buffer (MSD, Cat #R92TD-2) according to the manufacturer's instructions. Luminescent signals were measured using a SECTOR Imager (MSD).

human CD63 [2] = target: T1, human CD63; experiment: ECL, U87MG cells
Protocol: as §1, §2

human CD63 [3] = target: T1, human CD63; experiment: ECL, NIH3T3/hCD63 cells
Protocol: as §1, §2

[4] = target: T2, recombinant human CD63 extracellular loop 2 expressed with a C-terminal Myc-Myc-hexahistidine (human); experiment: SPR Biacore, mAb captured, 25C
T2 construct: also called hCD63 EC loop 2-MMH; human CD63 EC loop 2-MMH
T2 sequence (chain, as listed by the source limits assumed): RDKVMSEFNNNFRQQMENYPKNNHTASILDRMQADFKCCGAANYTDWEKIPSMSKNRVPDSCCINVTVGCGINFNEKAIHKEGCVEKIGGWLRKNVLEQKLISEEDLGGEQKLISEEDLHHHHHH
Protocol: (§3) Equilibrium dissociation constants (KD) for different CD63 (EC2) loop reagents binding to purified anti-CD63 monoclonal antibodies were determined using a real-time surface plasmon resonance based Biacore T200 biosensor or Biacore 2000 biosensor. All binding studies were performed in 10 mM HEPES, 150 mM NaCl, 3 mM EDTA, and 0.05% v/v Surfactant Tween-20, pH 7.4 (HBS-ET) running buffer at 25° C. and 37° C. The Biacore CMS sensor chip surface was first derivatized by amine coupling with either a rabbit anti-mouse Fc specific polyclonal antibody (GE Healthcare, Cat #BR100838) or an anti-human Fab kit (GE Healthcare, Cat #28958325) to capture anti-CD63 monoclonal antibodies. […] The association rate (Kₐ) and dissociation rate (kd) were determined by fitting the real-time binding sensorgrams to a 1:1 binding model with mass transport limitation using Scrubber 2.0c curve-fitting software. Binding dissociation equilibrium constant (KD) and dissociative half-life (t½) were calculated from the kinetic rates as: […]
(§4) Binding kinetics parameters for human CD63 EC loop 2 protein binding to different anti-CD63 monoclonal antibodies of the invention at 25° C. and 37° C. are shown in Tables 6 through 9.

[5] = target: T3, recombinant human CD63 extracellular loop 2 expressed with a C-terminal human Fc tag (human); experiment: SPR Biacore, mAb captured, 25C
T3 construct: also called hCD63 EC loop 2-hFc; human CD63 EC loop 2-Fc
T3 sequence (chain, as listed by the source limits assumed): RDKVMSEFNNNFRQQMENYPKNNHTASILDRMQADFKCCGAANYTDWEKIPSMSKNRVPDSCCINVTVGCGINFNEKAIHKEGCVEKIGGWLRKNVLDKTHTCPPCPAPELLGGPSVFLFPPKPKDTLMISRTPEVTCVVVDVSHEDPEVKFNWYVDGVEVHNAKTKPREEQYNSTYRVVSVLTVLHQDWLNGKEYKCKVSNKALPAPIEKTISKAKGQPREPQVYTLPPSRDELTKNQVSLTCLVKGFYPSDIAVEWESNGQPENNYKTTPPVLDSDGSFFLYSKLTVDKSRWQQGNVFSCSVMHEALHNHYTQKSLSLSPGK
Protocol: as §3, §4

[6] = target: T2, recombinant human CD63 extracellular …; experiment: SPR Biacore, mAb captured, 37C
Protocol: as §3, §4

[7] = target: T3, recombinant human CD63 extracellular …; experiment: SPR Biacore, mAb captured, 37C
Protocol: as §3, §4

B1: H2M12387N (antibody, V domains shown)
VH: QVQLEESGGGVVKAGGSLRLSCAASGFTFSDYYMNWIRQAPGKGLEWVSYINNGGYTIYYADSVKGRFTMSRDNAKNSVYLQMNGLRAEDTAFYYCVRDPRSYYGFDYWGQGTLVIVSS
VL: DIQMTQSPSSLSASVGDRVTITCRASQSISRFLHWYQQKPGKAPKLLIYGASSLQSGVPSRFSGSGSGTDFTLTISSLQPEDFATYYCQQSYSTPPITFGQGTRLEIK
notes: also called H2aM12387N
In the case of B1, the EC50 (human CD63 [1]) is reported as 0.15 nM, the “binding ratio at 3.7 nM vs NIH3T3” value (human CD63 [1]) is reported as 18 fold and the EC50 (human CD63 [2]) is reported as 0.29 nM. The “binding ratio at 3.7 nM vs NIH3T3” value (human CD63 [2]) was 172 fold, the EC50 (human CD63 [3]) was 0.39 nM and the “binding ratio at 3.7 nM vs NIH3T3” value (human CD63 [3]) was 228 fold. The “100 nM Ag Bound (RU)” value [4] was 74 RU, the Kd [4] was 0.994 nM and the koff [4] was 0.00054 s⁻¹. For the same binder, the kon [4] was 543000 M⁻¹ s⁻¹, the t1/2 [4] was 21 min and the “100 nM Ag Bound (RU)” value [5] was 164 RU. It also gave a Kd [5] of 0.129 nM, a koff [5] of 0.00011 s⁻¹ and a kon [5] of 854000 M⁻¹ s⁻¹. The t1/2 [5] was 105 min, the “100 nM Ag Bound (RU)” value [6] was 77 RU and the Kd [6] was 5.21 nM. It also gave a koff [6] of 0.00354 s⁻¹, a kon [6] of 679000 M⁻¹ s⁻¹ and a t1/2 [6] of 3 min. The “100 nM Ag Bound (RU)” value [7] was 196 RU, the Kd [7] was 0.596 nM and the koff [7] was 0.000657 s⁻¹. For the same binder, the kon [7] was 1.1e+06 M⁻¹ s⁻¹ and the t1/2 [7] was 18 min.

B2: H2M12452N (antibody, V domains shown)
VH: QVQLQEAGPGLVKPSETLSLTCIVSGGSISGFYWNWIRQPPGKGLEWIGYFLYSGTIDYNPSLKSRVTISVDTSKNQFFLKLSFVTAADTAVYYCVRMGLGANAFDIWGRGTMVTVSS
VL: EIVLTQSPGTLSLSPGERATLSCRASQTVSRSFLAWYQQKPGQAPRLLIYGPSSRATGIPDRFSGSGSGTDFTLTISRLEPEDFAVYYCQQYGNSPWTFGQGTKVEIK
notes: also called H2aM12452N
For B2, the EC50 (human CD63 [1]) was 0.74 nM, the “binding ratio at 3.7 nM vs NIH3T3” value (human CD63 [1]) was 37 fold and the EC50 (human CD63 [2]) was 2 nM. For the same binder, the “binding ratio at 3.7 nM vs NIH3T3” value (human CD63 [2]) was 260 fold, the EC50 (human CD63 [3]) was 0.61 nM and the “binding ratio at 3.7 nM vs NIH3T3” value (human CD63 [3]) was 593 fold. For the same binder, the “100 nM Ag Bound (RU)” value [4] was 35 RU, the Kd [4] was 7.33 nM and the koff [4] was 0.000596 s⁻¹. The kon [4] was 81300 M⁻¹ s⁻¹, the t1/2 [4] was 19 min and the “100 nM Ag Bound (RU)” value [5] was 91 RU. The Kd [5] was 1.87 nM, the koff [5] was 0.000228 s⁻¹ and the kon [5] was 122000 M⁻¹ s⁻¹. The t1/2 [5] was 51 min, the “100 nM Ag Bound (RU)” value [6] was 34 RU and the Kd [6] was 6.98 nM. It also gave a koff [6] of 0.00269 s⁻¹, a kon [6] of 385000 M⁻¹ s⁻¹ and a t1/2 [6] of 4 min. The “100 nM Ag Bound (RU)” value [7] was 104 RU, the Kd [7] was 1.1 nM and the koff [7] was 0.000857 s⁻¹. For the same binder, the kon [7] was 779000 M⁻¹ s⁻¹ and the t1/2 [7] was 13 min.

B3: H1M12362N (antibody, V domains shown)
VH: QVQLVESGGGLVKPGGSLRLSCAASGFIFSDYYINWIRQAPGKGLEWVSYTSSSGSTTYYEDSVKGRFTMSRDNARNLVYLQMNSLRAEDTAAYYCVRDLRYNDGLDVWGQGTTVTVSS
VL: DILLTQSPSSLSASVGDRVTITCRASQSIRTYLNWYQQKPGRAPKLLVYAASSLQSGVPSRFSGSGSGTDFTLTISSLQPEDFATYFCQQSYDNPPITFGQGTRLAIK
For B3, the EC50 (human CD63 [1]) was 0.57 nM, the “binding ratio at 3.7 nM vs NIH3T3” value (human CD63 [1]) was 16 fold and the EC50 (human CD63 [2]) was 0.56 nM. The “binding ratio at 3.7 nM vs NIH3T3” value (human CD63 [2]) was 174 fold, the EC50 (human CD63 [3]) was 0.63 nM and the “binding ratio at 3.7 nM vs NIH3T3” value (human CD63 [3]) was 283 fold. The “100 nM Ag Bound (RU)” value [4] was 51 RU, the Kd [4] was 12.7 nM and the koff [4] was 0.00144 s⁻¹. For the same binder, the kon [4] was 113000 M⁻¹ s⁻¹, the t1/2 [4] was 8 min and the “100 nM Ag Bound (RU)” value [5] was 125 RU. For the same binder, the Kd [5] was 0.84 nM, the koff [5] was 0.000399 s⁻¹ and the kon [5] was 477000 M⁻¹ s⁻¹. The t1/2 [5] was 29 min, the “100 nM Ag Bound (RU)” value [6] was 32 RU and the Kd [6] was 19.5 nM. For the same binder, the koff [6] was 0.0072 s⁻¹, the kon [6] was 369000 M⁻¹ s⁻¹ and the t1/2 [6] was 2 min. The “100 nM Ag Bound (RU)” value [7] was 118 RU, the Kd [7] was 0.977 nM and the koff [7] was 0.000669 s⁻¹. For the same binder, the kon [7] was 685000 M⁻¹ s⁻¹ and the t1/2 [7] was 17 min.

B4: H1M12366N (antibody, V domains shown)
VH: QVQLQESGPGLVKPSETLSLTCTVSGGSISSYYWNWIRQSPEKGLEWIGYIYISGTTNYNPSLKSRVTISVDTFKNQFSLKLNSVTAADTAVYYCARMGLGREAFDIWGQGTMVTVSS
VL: not shown
notes: also called H3M12366N
In the case of B4, the EC50 (human CD63 [1]) is reported as 1.8 nM, the “binding ratio at 3.7 nM vs NIH3T3” value (human CD63 [1]) is reported as 7 fold and the EC50 (human CD63 [2]) is reported as 2 nM. The “binding ratio at 3.7 nM vs NIH3T3” value (human CD63 [2]) was 107 fold, the EC50 (human CD63 [3]) was 0.83 nM and the “binding ratio at 3.7 nM vs NIH3T3” value (human CD63 [3]) was 310 fold.
